Data reported in patent publication US20200368258A1 (NORTHWESTERN UNIVERSITY, published 2020).
No end group written: not given here. *: point of attachment. FITC = O=C1OC2(c3ccc(O)cc3Oc3cc(O)ccc32)c2ccc(NC(=S)*)cc21

Target: T1, WWP2 recombinant protein (SEQ ID NO:24) (Homo sapiens (Human), UniProt O00308 1-870)
T1 construct: It was expressed with a pET28b His-tag/thrombin leader; also called WWP2 polypeptide; Nedd4 WWP2
Assay: fluorescence polarization, WWP2 dose-response up to 19.6 µM, FITC-peptide probe at 5 nM

T1 sequence (O00308 other isoform, or with tags, fused parts or gaps limits assumed): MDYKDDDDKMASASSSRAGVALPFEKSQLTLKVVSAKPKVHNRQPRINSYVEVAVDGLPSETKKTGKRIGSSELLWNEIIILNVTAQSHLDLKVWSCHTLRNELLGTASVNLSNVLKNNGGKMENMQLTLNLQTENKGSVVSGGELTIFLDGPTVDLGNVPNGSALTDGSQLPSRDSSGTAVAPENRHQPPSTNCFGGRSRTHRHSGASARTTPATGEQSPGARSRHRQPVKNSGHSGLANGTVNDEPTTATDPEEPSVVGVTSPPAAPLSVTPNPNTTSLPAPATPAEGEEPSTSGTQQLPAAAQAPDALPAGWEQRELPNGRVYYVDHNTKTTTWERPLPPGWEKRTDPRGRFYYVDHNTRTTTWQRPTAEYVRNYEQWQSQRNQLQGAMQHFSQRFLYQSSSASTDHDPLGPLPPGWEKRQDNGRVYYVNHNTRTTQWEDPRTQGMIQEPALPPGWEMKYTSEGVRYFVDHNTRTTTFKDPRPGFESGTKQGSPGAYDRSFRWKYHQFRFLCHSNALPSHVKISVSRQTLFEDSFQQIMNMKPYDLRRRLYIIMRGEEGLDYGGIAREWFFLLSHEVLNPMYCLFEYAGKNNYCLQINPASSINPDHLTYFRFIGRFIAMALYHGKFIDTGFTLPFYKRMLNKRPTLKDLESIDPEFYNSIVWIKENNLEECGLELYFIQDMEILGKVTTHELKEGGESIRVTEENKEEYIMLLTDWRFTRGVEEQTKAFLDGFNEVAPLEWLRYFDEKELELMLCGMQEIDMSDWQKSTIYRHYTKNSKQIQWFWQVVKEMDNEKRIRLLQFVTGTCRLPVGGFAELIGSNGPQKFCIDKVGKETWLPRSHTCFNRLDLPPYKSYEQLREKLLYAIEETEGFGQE

B1: FITC-labeled peptide probe with three tandem PY motif binding units derived from the p2 region of ASLV gag (SEQ ID NO:18) (peptide)
peptide: {FITC}-ATASAPPPYVGSGGGATASAPPPYVGSGGGATASAPPPYVGSGGGRRR
notes: Synthetic peptide (Biosynthesis, TX); also called FITC-peptide; FTIC-peptide
- Kd: 200 nM
